Laboratory results published in patent US20240084027A1 (BEIJING MABWORKS, published 2024).
Where two headings read alike, the source gives them in different places.

T1: monkey CD40 on HEK293A/monkey CD40 cells (monkey, UniProt P25942 21-277 (human entry))
T1 chain: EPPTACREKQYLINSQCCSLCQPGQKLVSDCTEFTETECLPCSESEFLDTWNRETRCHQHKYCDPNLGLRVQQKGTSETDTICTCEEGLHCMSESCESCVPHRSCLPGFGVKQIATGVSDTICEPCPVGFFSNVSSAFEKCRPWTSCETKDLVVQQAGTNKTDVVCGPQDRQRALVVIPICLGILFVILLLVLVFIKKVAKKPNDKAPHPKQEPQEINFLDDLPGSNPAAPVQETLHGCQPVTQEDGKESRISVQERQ


Assays:
[1] = target: T2, human CD40 on HEK293A/human CD40 cells (human, UniProt P25942 21-277); experiment: cell-based or functional assay
[2] = target: T2, human CD40 on HEK293A/human CD40 cells; experiment: cell-based or functional assay; remark: listed apart in the source
[3] = target: T2, human CD40 on HEK293A/human CD40 cells; experiment: cell-based or functional assay; remark: listed apart in the source
[4] = target: T2, human CD40 on HEK293A/human CD40 cells; experiment: FACS on HEK293A/human CD40 cells
Experimental: (§1) The bispecific antibodies as prepared above were tested for their binding capability to cell surface human, monkey and mouse CD40 proteins by FACS, using the HEK293A cells prepared in Example 1 that stably expressed human, monkey or mouse CD40. Briefly, a 96-well plate was seeded with 10⁵ HEK293A cells in 50 μl PBS, and then added with 100 μl serially diluted anti-CD40 antibody 714VH2VL2 and the bispecific antibodies of the disclosure (starting concentration at 40 μg/ml). After incubation at 4° C. for 1 h, the plate was washed by PBST for 3 times. The plate was added with 1:500 diluted APC-goat anti-mouse IgG (Cat #:405308, BioLegen, USA), incubated at 4° for 1 h, washed with PBS for 3 times, and subjected to fluorescence measurement in a FACS machine (BD).

[5] = target: T2, human CD40 on HEK293A/human CD40 cells; experiment: FACS on HEK293A/human CD40 cells; remark: listed apart in the source
Experimental: as §1
(§2) Following the protocols in Example 4 and Example 5, the bi- or multi-specific antibodies of the disclosure were tested for their binding capability to human PD-L1 and human CD40 proteins by FACS using the HEK293A cells prepared in Example 1 that stably expressed human PD-L1 or human CD40.

[6] = target: T2, human CD40 on HEK293A/human CD40 cells; experiment: FACS on HEK293A/human CD40 cells; remark: listed apart in the source
Experimental: as §1, §2

[7] = target: T1, monkey CD40 on HEK293A/monkey CD40 cells; experiment: FACS on HEK293A/monkey CD40 cells
Experimental: as §1

[8] = target: T3, human PD-L1 on HEK293A/human PD-L1 cells (human, UniProt Q9NZQ7 19-290); experiment: FACS on HEK293A/human PD-L1 cells
Experimental: as §1, §2

human CD40-his protein = target: T4, human CD40-his protein (human, UniProt P25942 21-193); experiment: SPR (BIAcore 8K), human CD40-his coupled to CM5 chip, antibody injected
T4 construct: Bought protein; also called human CD40 protein; CD40 molecules; not shown: his tag
Source text: (§3) Using BIAcore™ 8K instrument (GE Life Sciences, US), the binding affinity of the bi- or multi-specific antibodies to human CD40 and PD-L1 was quantitatively measured. Briefly, 100-200 response units (RU) of human CD40-his protein (Cat #:10774-1108H, Sino Biological, CN) or human PD-L1-his protein (Cat #:10084-H08H, Sino Biological, CN) were coupled to CM5 biosensor chips (Cat #:BR-1005-30, GE Life Sciences. USA). The un-reacted groups were then blocked with 1 M ethanolamine. Serially diluted antibodies at concentrations ranging from 0.3 μM to 10 μM were injected into the SPR running buffer (HBS-EP buffer, pH7.4, Cat #:BR-1006-69, GE Life Sciences, USA) at 30 μL/min. The binding affinity was calculated with the RUs of blank controls subtracted, and the association rate (kₐ) and dissociation rate (kd) were determined using the one-to-one Langmuir binding model (BIA Evaluation Software, GE Life Sciences, USA). The equilibrium dissociation constant KD was calculated as the kd/kₐ ratio.

human PD-L1-his protein = target: T5, human PD-L1-his protein (human, UniProt Q9NZQ7 19-238); experiment: SPR (BIAcore 8K), human PD-L1-his coupled to CM5 chip, antibody injected
T5 construct: extracellular domain; also called human PD-L1 (ECD)-his; human PD-L1 protein; not shown: his tag
Source text: as §3

[9] = target: T3, human PD-L1 on HEK293A/human PD-L1 cells; experiment: FACS blocking assay on HEK293A/human PD-L1 cells; blocked ligand PD-1-Fc
Experimental: The bispecific antibodies were tested for their blocking activity on PD-1-PD-L1 binding by FACS using the HEK293A cells stably expressing human PD-L1 molecules as prepared in Example 1. Briefly, a 96-well plate was seeded with 10⁵ HEK293A/human PD-L1 cells in 100 μl cell culture medium, and then added with 50 μl serially diluted anti-PD-L1 antibody 56E5VH5VL4 or MBS307-3 molecules. After incubation at 4° C. for 1 h. the plate was washed with PBST for 3 times, added with 100 μl 200 μg/ml PD-1-Fc fusion proteins (Cat #:10377-10211, Sino Biological, CN), incubated at 4° C. for 1 h, washed with PBST for 3 times, and added with 1:500 diluted PE-goat anti-human IgG (Cat #:PAI-86078, Thermofisher, USA). After incubation at 4° C. for 1 h, the plate was washed with PBST for 3 times and measured for fluorescence using a FACS machine (BD).
Following the protocol of Example 7, the bi- or multi-specific antibodies were tested for their capability to block PD-1-PD-L1 binding by FACS, using the HEK293A cells prepared in Example 1 that stably expressed human PD-L1 molecules.

T3 sequence (Q9NZQ7 19-290 limits assumed): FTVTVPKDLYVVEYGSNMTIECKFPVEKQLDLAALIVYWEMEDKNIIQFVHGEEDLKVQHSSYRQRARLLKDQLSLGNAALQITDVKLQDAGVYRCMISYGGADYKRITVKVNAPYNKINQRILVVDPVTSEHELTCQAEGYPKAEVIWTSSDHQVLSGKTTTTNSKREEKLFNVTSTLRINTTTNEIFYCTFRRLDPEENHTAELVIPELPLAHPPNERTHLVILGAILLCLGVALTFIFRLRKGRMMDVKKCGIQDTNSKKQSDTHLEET
T5 sequence (Q9NZQ7 19-238): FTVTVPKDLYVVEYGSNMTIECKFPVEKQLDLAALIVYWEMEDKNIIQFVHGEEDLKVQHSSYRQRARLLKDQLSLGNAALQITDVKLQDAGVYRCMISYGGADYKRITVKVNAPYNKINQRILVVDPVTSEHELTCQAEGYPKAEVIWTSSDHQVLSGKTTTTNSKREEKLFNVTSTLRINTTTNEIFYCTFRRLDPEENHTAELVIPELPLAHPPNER

| Binder | EC50 (read off the curve); HEK-Blue/CD40 reporter, OD630, plate coated with human PD-L1-his [1] [mg/L] | EC50 (read off the curve); HEK-Blue/CD40 reporter, OD630, plate coated with human PD-L1-his [2] [mg/L] | EC50 (read off the curve); HEK-Blue/CD40 reporter, OD630, plate coated with human PD-L1-his [3] [mg/L] | EC50 (read off the curve) [4] [mg/L] | EC50 (read off the curve) [5] [mg/L] | EC50 (read off the curve) [6] [mg/L] | EC50 (read off the curve) [7] [mg/L] | EC50 (read off the curve) [8] [mg/L] | Kd (human CD40-his protein) [nM] | Kd (human PD-L1-his protein) [nM] | IC50 (read off the curve) [9] [mg/L] |
| --- | --- | --- | --- | --- | --- | --- | --- | --- | --- | --- | --- |
| anti-CD40 antibody 7B4VH2VL2 (antibody, V domains shown, also called the monospecific anti-CD40 antibody; 714VH2VL2 [sic]) VH: QVQLQESGPGLVKPSDTLSLTCAVSGYSITTNYYWNWIRQPPGKGLEWMGYIKYDGSNNYNPSLKNRITISVDTSKNQFSLKLSSVTAVDTAVYYCARLDYWGQGTLVTVSS VL: DVVLTQSPLSLPVTLGQPASISCRSSQSLENSNGNTFLNWFQQRPGQSPRLLIYKVSNRFSGVPDRFSGSGSGTDFTLKISRVEAEDVGVYYCLQVTHVPFTFGQGTKLEIK | ~0.1 | ~0.1 | ~0.04 | ~0.05 | ~0.03 | ~0.04 | ~0.04 | – | – | – | – |
| MBS307-6 (bispecific antibody, human IgG1, kappa, L234A L235A, Asymmetric: anti-CD40 antibody, knob chain without scFv, hole chain with the anti-PD-L1 scFv of 56E5VH5VL4; also called MBS307-6-1 + MBS307-6-2) heavy 1: QVQLQESGPGLVKPSDTLSLTCAVSGYSITTNYYWNWIRQPPGKGLEWMGYIKYDGSNNYNPSLKNRITISVDTSKNQFSLKLSSVTAVDTAVYYCARLDYWGQGTLVTVSSASTKGPSVFPLAPSSKSTSGGTAALGCLVKDYFPEPVTVSWNSGALTSGVHTFPAVLQSSGLYSLSSVVTVPSSSLGTQTYICNVNHKPSNTKVDKKVEPKSCDKTHTCPPCPAPEAAGGPSVFLFPPKPKDTLMISRTPEVTCVVVDVSHEDPEVKFNWYVDGVEVHNAKTKPREEQYNSTYRVVSVLTVLHQDWLNGKEYKCKVSNKALPAPIEKTISKAKGQPREPQVYTLPPSREEMTKNQVSLWCLVKGFYPSDIAVEWESNGQPENNYKTTPPVLDSDGSFFLYSKLTVDKSRWQQGNVFSCSVMHEALHNHYTQKSLSLSPGK heavy 2: QVQLQESGPGLVKPSDTLSLTCAVSGYSITTNYYWNWIRQPPGKGLEWMGYIKYDGSNNYNPSLKNRITISVDTSKNQFSLKLSSVTAVDTAVYYCARLDYWGQGTLVTVSSASTKGPSVFPLAPSSKSTSGGTAALGCLVKDYFPEPVTVSWNSGALTSGVHTFPAVLQSSGLYSLSSVVTVPSSSLGTQTYICNVNHKPSNTKVDKKVEPKSCDKTHTCPPCPAPEAAGGPSVFLFPPKPKDTLMISRTPEVTCVVVDVSHEDPEVKFNWYVDGVEVHNAKTKPREEQYNSTYRVVSVLTVLHQDWLNGKEYKCKVSNKALPAPIEKTISKAKGQPREPQVYTLPPSREEMTKNQVSLSCAVKGFYPSDIAVEWESNGQPENNYKTTPPVLDSDGSFFLVSKLTVDKSRWQQGNVFSCSVMHEALHNHYTQKSLSLSPGSGGGGSGGGGSQVQLQESGPGLVKPSQTLSLTCTVSGGSITSDYWNWIRQHPGNKLEYMGYISYTGSTYYNPSLKSRISITRDTSKNQFSLKLSSVTTADTAVYYCARYRDWDVRAMDYWGQGTTVTVSSGGGGSGGGGSGGGGSGGGGSDIVMTQSPDSLAVSLGEKVTMNCKSSQSLLISGNQKNFLTWYQQKPGQPPKLLIYWASTRESGVPDRFSGSGSGTDFTLTISSLQAEDEAVYYCQNDFGFPFTFGQGTKLTAK light: DVVLTQSPLSLPVTLGQPASISCRSSQSLENSNGNTFLNWFQQRPGQSPRLLIYKVSNRFSGVPDRFSGSGSGTDFTLKISRVEAEDVGVYYCLQVTHVPFTFGQGTKLEIKRTVAAPSVFIFPPSDEQLKSGTASVVCLLNNFYPREAKVQWKVDNALQSGNSQESVTEQDSKDSTYSLSSTLTLSKADYEKHKVYACEVTHQGLSSPVTKSFNRGEC | – | ~0.02 | – | – | – | ~0.07 | – | ~0.6 | 3.11 | 42 | ~1 |
| MBS307-7 (bispecific antibody, human IgG1, kappa, L234A L235A, Symmetric: full-length anti-CD40 antibody with the anti-PD-L1 scFv of 3C2VH6VL5 on each heavy chain) heavy: not shown light: DVVLTQSPLSLPVTLGQPASISCRSSQSLENSNGNTFLNWFQQRPGQSPRLLIYKVSNRFSGVPDRFSGSGSGTDFTLKISRVEAEDVGVYYCLQVTHVPFTFGQGTKLEIKRTVAAPSVFIFPPSDEQLKSGTASVVCLLNNFYPREAKVQWKVDNALQSGNSQESVTEQDSKDSTYSLSSTLTLSKADYEKHKVYACEVTHQGLSSPVTKSFNRGEC | ~0.1 | – | – | – | ~0.06 | – | – | – | 1.43 | 11.9 | – |
